Measured values published in publication PMC3826434 (Biochemistry, 2013).

Target: the molecule itself
Assay: native gel or EMSA

B1: CmlA, β-hydroxylase of the chloramphenicol biosynthetic pathway (wild type) (enzyme)
chain: MRYSLRQDIAVEPVIAGWYGWSYLLPPQTLARFVHNRFNRIVESYLDDPQVHAAAVRQRRMHGGPWIHAHEHRDAIEAWYRETAPRRERLDELFEAVRRLEEDILPRHHGECLDPVYQELPAALAGRVEVFYGRDNRTADYRFVEPLMYASEYYDESWQQVRFRPVTEDAREFALTTPMLEYGPEQLLVDVPLNSPLLDAVFRGGLTGTELDDLAARFGLDGERAARFASYFEPTPAASEAPAPASSSEEDVLEYVGHACVFARHRGTTFLVDPVLSYSGYPGGAENRFTFADLPERIDHLLITHNHQDHMLFETLLRIRHRVGRVLVPKSTNASLVDPGLGGILRRLGFTDVVEVDDLETLSCGSAEVVALPFLGEHGDLRIRSKTGWLIRFGERSVLFAADSTNISPTMYTKVAEVIGPVDTVFIGMESIGAAASWIYGPLYGEPLDRRTDQSRRLNGSNFPQAREIVDALEPDEVYVYAMGLEPWMGVVMAVDYDESHPAIVDSDLLVRHVQDKGGTAERLHLRRTLRL
stoichiometry N: 2
